Here are results for 1 substance from patent US5945288.

This data set concerns PmeI restriction endonuclease (Pseudomonas mendocina). As to the kind of experiment: cleavage_in_vitro. The note with it: column fractions assayed on lambda DNA.

As for bacteriophage lambda DNA, the activity (units (total purified)) came out at 116000.
